In patent publication US20140298544A1, “Engineered PEP carboxylase variants for improved plant productivity” (PIONEER HI BRED INTERNATIONAL INC, priority 2011, published 2014):
Substitutions are numbered along the chain they refer to.

B1: 3F30-F12: maize C4 PEPC variant, 7 amino acid substitutions, SEQ ID NO: 11 (protein)
chain: MASTKAPGPGEKHHSIDAQLRQLVPGKVSEDDKLIEYDALLVDRFLNILQDLHGPSLREFVQECYEVSADYEGKGDTTKLGELGAKLTGLAPADAILVASSILHMLNLANLAEEAQIAHRRRNSKLKKGGFADEGSATTESDIEETLKRLVSEVGKSPEEVFEALKNQTVDLVFTAHPTQSARRSLLQKNAGIRNCLTQLNAKDITDGDKQELDEALQREIQAAFRTDEIRRAQPTPQDEMRYGMSYIHETVWKGVPKFLRRVDTALKNIGINERLPYNVSLIRFSSWMGGDRDGNPRVTPEVTRDVCLLARMMAANLYIDQIEELMFELSMWRCNDELRVRAEELHSSSGSKVTKYYIEFWKQIPPNEPYRVILGHVRDKLYNTRERARHLLASGVSEISAESSFTSIEEFLEPLELCYKSLCDCGDKAIADGSLLDLLRQVFTFGLSLVKLDIRQESERHTDVIDAITTHLGIGSYREWSEDKRQEWLLSELRGKRPLLPPDLPQTDEIADVIGAFHVLAELPPDSFGPYIISMATAPSDVLAVELLQRECGIKQPLPVVPLFERLADLQSAPASVERLFSVDWYMDRIKGKQQVMVGYSDSGKDAGRLSAAWQLYKAQEEMAQVAKRYGVKLTLFHGRGGTVGRGGGPTHLAILSQPPDTINGSIRVTVQGEVIEFCFGEEHLCFQTLQRFTAATLEHGMHPPVSPKPEWRKLMDEMAVVATEEYRSVVVKEPRFVEYFRSATPETEYGRMNIGSRPAKRRPGGGITTLRAIPWIFSWTQTRFHLPVWLGVGAAFKFAIDKDVRNFQVLKEMYNEWPFFRVTLDLLEMIFAKGDPGIAGLYDELLVAEELKPFGKQLRDKYVETQQLLLQIAGHKDILEGDPFLKQGLVLRNPYITTLNVFQAYTLKRIRDPNFKVTPQPPLSKEFADENKPAGLVKLNPASEYPPGLEDTLILTMKGIAAGMQNTG
modifications: shuffled variant
B2: 3C2-H4: maize C4 PEPC variant, 6 amino acid substitutions, SEQ ID NO: 12 (protein)
chain: B1 chain with A115V, H119R, G208D, S404A, R495K, I555V, K556R, R807K, I832V
modifications: shuffled variant
B3: 3D5-D12: maize C4 PEPC variant, 7 amino acid substitutions, SEQ ID NO: 24 (protein)
chain: B1 chain with K86R, G208D, S348A, S350A, R495K, I555V, K556R, K619R, R807K, I832V
modifications: shuffled variant
B4: WT: wild-type maize C4 PEPC enzyme, SEQ ID NO: 26 (protein)
chain: B1 chain with A115V, G192R, G208D, I555V, K556R, K619R, I832V
modifications: Zea mays
B5: 3C9-C9: maize C4 PEPC variant, 8 amino acid substitutions, SEQ ID NO: 22 (protein)
chain: B1 chain with A115V, H119R, G208D, D321N, S404A, R495K, I832V
modifications: shuffled variant

Each molecule was assayed on maize C4 PEPC (assay: Kinetic and regulatory properties of PEPC variants (expressed in E. coli)). Details: PEP substrate, no activators.
Assay type: biochemical
From the text: Libraries of modified PEPC polynucleotides were generated using recursive sequence recombination methods (Stemmer, Proc. Natl. Acad. Sci USA 91:10747-10751; Ness, et. al., Nature Biotechnology 20:1251-1255), also known as gene shuffling methods. These libraries incorporated diversity from related PEPC enzymes and also incorporated other designed and random changes. The starting polynucleotide sequence in which the diversity was incorporated was the maize C4 PEPC as shown in SEQ ID NO: 25. Each PEPC variant was expressed in E. coli as a thioredoxin fusion using the pET 32 expression vector (Novagen) with the E. coli expression strain Rosetta gami 2 BL21 DE3 pLYS S. Cultures expressing the variants were grown in 96-well culture blocks, lysed, and then PEPC activity and PEPC protein abundance were determined. The variants with high specific activity were subjected to further rounds of shuffling, for a total of 3 rounds. Examples of nucleotide and amino acid sequences of PEPC variants obtained with this method are SEQ ID NO: 4 to 24.
Detailed kinetic studies of PEPC variants were done in accordance with methods known in the art. See, for example, Tovar-Mendez et al. (2000) Plant Physiol. 123: 149-160; Tover-Mendez et al. (1998) Biochem. J. 332: 633-642.
PEPC variants had several improved properties in comparison with wild type PEPC, including greater affinity (lower S0.5 values) with respect to the bicarbonate substrate, greater Kcat/S0.5 values with the bicarbonate or PEP substrates, greater activation (lower A0.5 values) with […] or glycine as activators and greater Ki values with malate as inhibitor.

Row | Molecule | PEP, no activators kcat/S0.5
1 | B1 | 89800 M⁻¹ s⁻¹
2 | B2 | 64100 M⁻¹ s⁻¹
3 | B3 | 151000 M⁻¹ s⁻¹
4 | B4 | 34100 M⁻¹ s⁻¹
5 | B5 | 79600 M⁻¹ s⁻¹

Same assay, conditions: PEP substrate, no activators; relative to wild type

Row | Molecule | PEP, no activators kcat/S0.5 % wt
6 | B1 | 263 % wt
7 | B2 | 188 % wt
8 | B3 | 442 % wt
9 | B4 | 100 % wt
10 | B5 | 234 % wt

Same assay, conditions: PEP substrate, with activators

Row | Molecule | PEP, with activators kcat/S0.5
11 | B1 | 4.496e+06 M⁻¹ s⁻¹
12 | B2 | 3.919e+06 M⁻¹ s⁻¹
13 | B3 | 5.551e+06 M⁻¹ s⁻¹
14 | B4 | 2.443e+06 M⁻¹ s⁻¹
15 | B5 | 3.831e+06 M⁻¹ s⁻¹

Same assay, conditions: PEP substrate, with activators vs no activators

Row | Molecule | kcat/S0.5 Fold incr.
16 | B1 | 50.1 Fold incr.
17 | B2 | 61.2 Fold incr.
18 | B3 | 36.9 Fold incr.
19 | B4 | 71.6 Fold incr.
20 | B5 | 48.1 Fold incr.

Same assay, conditions: PEP substrate, with activators; relative to wild type

Row | Molecule | PEP, with activators kcat/S0.5 % wt
21 | B1 | 184 % wt
22 | B2 | 160 % wt
23 | B3 | 227 % wt
24 | B4 | 100 % wt
25 | B5 | 157 % wt

Same assay, conditions: activator Glc-6-P

Row | Molecule | Glc-6-P Vmax Fold incr
26 | B1 | 12.6 Fold incr
27 | B2 | 7.6 Fold incr
28 | B3 | 4.3 Fold incr
29 | B4 | 23.1 Fold incr
30 | B5 | 11.4 Fold incr

Same assay, conditions: activator Glc-6-P; read-out: Glc-6-P A0.5

Row | EC50 | Molecule
31 | 5110 µM | B1
32 | 3020 µM | B2
33 | 1880 µM | B3
34 | 6800 µM | B4
35 | 3850 µM | B5

Same assay, conditions: activator Glc-6-P; relative to wild type

Row | Molecule | Glc-6-P A0.5 % wt
36 | B1 | 75 % wt
37 | B2 | 44 % wt
38 | B3 | 28 % wt
39 | B4 | 100 % wt
40 | B5 | 57 % wt

Same assay, conditions: activator glycine

Row | Molecule | Glycine Vmax Fold incr
41 | B1 | 11.3 Fold incr
42 | B2 | 10.3 Fold incr
43 | B3 | 4.1 Fold incr
44 | B4 | 15.9 Fold incr
45 | B5 | 11.5 Fold incr

Same assay, conditions: activator glycine; read-out: Glycine A0.5

Row | EC50 | Molecule
46 | 700 µM | B1
47 | 560 µM | B2
48 | 320 µM | B3
49 | 3620 µM | B4
50 | 760 µM | B5

Same assay, conditions: activator glycine; relative to wild type

Row | Molecule | Glycine A0.5 % wt
51 | B1 | 19 % wt
52 | B2 | 16 % wt
53 | B3 | 9 % wt
54 | B4 | 100 % wt
55 | B5 | 21 % wt

Same assay, conditions: bicarbonate substrate

Row | Molecule | HCO3 S0.5 | HCO3 kcat/S0.5
56 | B1 | 0.0248 mM | 3.481e+06 M⁻¹ s⁻¹
57 | B2 | 0.026 mM | 3.581e+06 M⁻¹ s⁻¹
58 | B3 | 0.0277 mM | 3.454e+06 M⁻¹ s⁻¹
59 | B4 | 0.0282 mM | 2.122e+06 M⁻¹ s⁻¹
60 | B5 | 0.021 mM | 3.606e+06 M⁻¹ s⁻¹

Same assay, conditions: bicarbonate substrate; relative to wild type

Row | Molecule | HCO3 kcat/S0.5 % wt
61 | B1 | 164 % wt
62 | B2 | 169 % wt
63 | B3 | 163 % wt
64 | B4 | 100 % wt
65 | B5 | 170 % wt

Same assay, conditions: inhibitor malate

Row | Molecule | Ki
66 | B1 | 3300 µM
67 | B2 | 1000 µM
68 | B3 | 4000 µM
69 | B4 | 400 µM
70 | B5 | 2000 µM

Same assay, conditions: inhibitor malate; relative to wild type

Row | Molecule | Malate Ki % wt
71 | B1 | 825 % wt
72 | B2 | 250 % wt
73 | B3 | 1000 % wt
74 | B4 | 100 % wt
75 | B5 | 500 % wt

Same assay, conditions: relative to wild type

Row | Molecule | Ki for malate, in words | Vmax, in words | activation by glucose-6-phosphate, in words | activation by glycine, in words
76 | B1 | increased Ki | better Vmax | increased activation | increased activation
77 | B2 | increased Ki | better Vmax | increased activation | increased activation
